Results from publication PMC4888458.

Columns and labels:
[1] = confocal microscopy of GFP–ALA2 in tobacco epidermal cells; conditions: glycan lost; control: untagged wild-type ALIS5 with GFP–ALA2
[2] = NBD-PS uptake in yeast, flow cytometry; conditions: glycan lost; control: wild-type ALIS5 with ALA2

B1: ALIS5: N181Q (protein)
parent chain: MSSTAASSTVGGGGSSEISGVKKTSKRPKYSRFTQQELPACKPILTPRWVILTFLVAGVVFIPLGVICLFASQGVVEIVDRYDTDCIPTSSRNNMVAYIQGEGDKICKRTITVTKAMKHPVYVYYQLENFYQNHRRYVKSRNDAQLRSPKEEHDVKTCAPEDNVGGEPIVPCGLVAWSLFNDTYSFSRNSQQLLVNKKGISWKSDRENKFGKNVFPKNFQKGAPIGGGTLNISKPLSEQEDLIVWMRTAALPTFRKLYGKIETDLHAGDTITVLLQNNYNTYSFNGQKKLVLSTTSWLGGRNDFLGIAYLTVGSICLFLAVTFAVLYLVKPRQLGDPSYLSWNRSAGGLQ
localisation_or_trafficking [1]: abolishes
other: transport activity [2]: abolishes

B2: ALIS5: N231Q/N181Q (protein)
parent chain: B1 parent chain
localisation_or_trafficking [1]: abolishes
other: transport activity [2]: abolishes
